In patent US20190106487A1 (Sanofi, published 2019):
Changes are numbered by the printed parent chain.

B1: P013.S.02.B.G01 (antibody, V domains shown)
VH: QSVEESGGRLVTPGGSLTLTCKVSGFSLSDYDIYWVRQAPGKGLEWIGVIDIENSVYYPTWAKGRFTISKTSTTVDLKITSPTTEDTATYFCARGDYIMTLDLWGQGTLVTVSS
VL: AAVLTQTPSPVSAAVGGTVTISCQASQSVYKNNRLAWYQQKPGQPPKLLIYLASTLASGVPSRFKGSGSGTQFTLTISDLESDDAATYYCAGGYSTISENAFGGGTEVVVK
notes: rabbit monoclonal antibody; also called P013.A.00015.G07
B2: P013.S.02.B.G03 (antibody, V domains shown)
VH: QSVEESGGRLVTPGTPLTLTCTVSGFSLSSYGMIWVRQAPGEGLEWIGFIGRGGATWYASWVKGRFTISKTSTTVDLKITSPTASDTATYFCARDGDSSDYYAFNLWGQGTLVTVSS
VL: DVVMTQTPASVSEPVGGTVTIKCQASQNIGSNLAWYQQRSGQPPKLLIYGASTLASGVPSRFSGSGSGTEFTLTISGVQSADAATYFCQCSGYDITGVFPFGGGSEVVVK
notes: rabbit monoclonal antibody; also called P013.A.00014.D07
B3: P013.S.02.B.H02 (antibody, V domains shown)
VH: B2 VH with V3L, Y31C, G32A, E42K, A55S, K63N, A84T, S85E, S98F, A103T
VL: B2 VL with R39K, S40P, A84T, F87Y, I95T, K110R
notes: rabbit monoclonal antibody; also called P013.A.00015.B10
B4: P013.S.01.B.E04 (antibody, V domains shown)
VH: QSVEESGGRLVTPGTPLTLTCTVSGIDLNSNGINWVRQAPGKGLEWIGYIGAGDITYCASWAKGRFTISKTSSTTVDLKITSLTTEDTATYFCARWGPGALDLWGQGTLVTVSS
VL: AQVLTQTASSVSATVGGTVTISCQSSQSVYNNNYLSWYQQKPGQPPKLLIYKASTLASGVPLRFSGSGSGTQFTLTISGVQSDDAATYYCAGFYETTDVGFGGGTEVVVK
notes: rabbit monoclonal antibody; also called P013.A.00109.D07
B5: P013.S.01.B.B05 (antibody, V domains shown)
VH: QSLEESGGRLVTPGTPLTLTCTASGFSLSSYYMSWVRQAPGKGLEWVGIISGSASTYYATWAKGRFTISKTSTTVDLKIASPTTEDTATYFCARTHYAAVAGYGYASRLDLWGQGTLVTVSS
VL: AIEMTQSPPSLSASVGETVRIRCLASEDIYSGISWYQQKPGKPPTLLIYAASNLESGVPPRFSGSGSGTDYTLTIGGVQAEDAATYYCLGGYSYSNTGPTFGAGTKVEIK
notes: rabbit monoclonal antibody; also called P013.A.00030.D07
B6: P013.S.01.B.E06 (antibody, V domains shown)
VH: QSLEESGGDLVKPGASLTLTCTASGFSFSSTYYMCWVRQAPGKGLEWIACIYAGSSGSTYYASWAKGRFTISKTSSTTVTLQMTSLTAADTATYFCARVDGSSSGSWDLWGPGTLVTVSS
VL: AIEMTQTPSSVSAAVGGTVTINCQASQNIYSNLAWYQQKPGQRPKLLIYAASLLASGVPSRFKGNGSGTEYTLTISDLESADAATYYCQGAVYSGNTEWAFGGGTEVVVK
notes: rabbit monoclonal antibody; also called P013.A.00030.F07
B7: P013.S.02.B.D04 (antibody, V domains shown)
VH: QSLEESGGDLVQPGGSLTLTCKASGFSFSASYWICWVRQAPGKGLEWIGCIYIGGGGRYYASWAKGRFTISKTSSTTVTLQMTSLTAADTATYFCARDPVTSGSDYVYDLWGPGTLVTVAS
VL: AYDMTQTPASVEVAVGGTVTIKCQASESISTWLAWYQQKPGQPPNLLIYRASTLASGVPSRFYGSGYGTEFTLTISGVESADAATYYCQQGYTVNNIDNVFGGGTEVVVK
notes: rabbit monoclonal antibody; also called P013.A.00086.A06
B8: P013.S.01.B.D06 (antibody, V domains shown)
VH: QSLEESGGDLVKPGASLTLTCTASGFSFSSSYYMCWVRQAPGKGLEWIACIYAGSSGVTYYASWAKGRFTISDTSSTTVTLQMTSLTAADTATYFCASETDGNYFNLWGPGTLVTVSS
VL: ALVMTQTPSPVSAAVGGTVTINCQASEDIYSNLAWFQQKPGQPPKLLIYRASTLASGVPSRFSGSGSGTEFTLTISGLQSDDAATYYCLGVYTYSTDIHAFGGGTEVVVK
notes: rabbit monoclonal antibody; also called P013.A.00029.D02

These binders were tested against T1, human IL-1RAcP on 293T/17-FR cells (human, UniProt Q9NPH3 21-570) (assay: cell-based or functional assay).
T1 sequence (looked up): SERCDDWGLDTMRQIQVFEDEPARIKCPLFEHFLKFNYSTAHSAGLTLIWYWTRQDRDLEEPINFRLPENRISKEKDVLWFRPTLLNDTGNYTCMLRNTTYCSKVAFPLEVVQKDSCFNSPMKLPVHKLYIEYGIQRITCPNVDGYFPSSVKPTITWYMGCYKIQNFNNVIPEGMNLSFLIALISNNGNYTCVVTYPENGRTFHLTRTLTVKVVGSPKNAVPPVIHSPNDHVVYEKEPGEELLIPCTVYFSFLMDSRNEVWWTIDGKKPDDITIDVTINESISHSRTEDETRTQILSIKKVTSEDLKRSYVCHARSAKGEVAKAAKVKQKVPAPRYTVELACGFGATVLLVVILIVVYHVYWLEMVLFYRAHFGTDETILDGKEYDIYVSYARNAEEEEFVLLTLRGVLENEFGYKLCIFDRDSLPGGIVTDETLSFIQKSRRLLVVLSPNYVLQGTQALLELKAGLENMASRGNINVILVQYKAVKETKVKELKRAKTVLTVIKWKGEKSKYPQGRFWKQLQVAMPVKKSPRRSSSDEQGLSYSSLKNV

Binder | functional reporter gene assay (% inhibition), 0.04 µg/mL mAb | functional reporter gene assay (% inhibition), 0.2 µg/mL mAb | functional reporter gene assay (% inhibition), 1 µg/mL mAb | functional reporter gene assay (% inhibition), 5 µg/mL mAb | primary supernatant functional assay (% inh.), NF-kB luciferase reporter
B1 | 1% | 1% | 10% | -5% | -36%
B2 | 6% | 0% | 5% | 17% | -39%
B3 | 25% | -2% | 28% | 28% | 36%
B4 | 39% | 62% | 88% | 98% | 88%
B5 | 52% | 81% | 93% | 96% | 85%
B6 | 44% | 60% | 93% | 91% | 72%
B7 | 4% | 19% | 47% | 87% | 88%
B8 | 24% | 66% | 96% | 97% | 80%

These binders were tested against T2, rhIL-1RAcP/Fc Chimera (human, UniProt Q9NPH3 21-359) (assay: ELISA, recombinant purified mAb).
T2 construct: also called P013_03; P013-03
T2 sequence (looked up): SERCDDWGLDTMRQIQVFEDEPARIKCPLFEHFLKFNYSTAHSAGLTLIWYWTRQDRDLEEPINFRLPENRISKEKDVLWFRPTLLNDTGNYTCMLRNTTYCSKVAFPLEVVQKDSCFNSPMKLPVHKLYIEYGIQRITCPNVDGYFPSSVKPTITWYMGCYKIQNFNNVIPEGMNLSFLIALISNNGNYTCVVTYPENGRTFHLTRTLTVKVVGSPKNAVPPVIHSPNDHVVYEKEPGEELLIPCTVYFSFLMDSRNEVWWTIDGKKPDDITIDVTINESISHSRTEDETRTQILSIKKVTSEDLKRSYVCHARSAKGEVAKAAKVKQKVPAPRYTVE

Binder | EC50
B4 | 0.072 mg/L
B6 | 0.447 mg/L
B8 | 0.053 mg/L

The binders below were run against T2, rhIL-1RAcP/Fc Chimera (assay: ELISA, primary supernatant, coated hu-IL-1RAcP-Fc).
From the text: Microtiter plates were coated IL-1RACP and/or IL12Rβ1 protein (recombinant Fc chimeric conjugates of human IL-1RACP or IL12Rβ1). After a blocking process, specific antibodies from B-cell supernatants bind to the targets and are then detected by a POD-labeled anti-rabbit IgG antibody. The IL12Rβ1 binding was used as a counterscreen. IL-1RACP protein was tagged with a linker, huFc and His like the IL12Rβ1 protein. Antibodies which bind to the tag were positive in both assays, whereas antigen specific antibodies just bound to IL-1RACP and not to IL12Rβ1.
12.5 μL 0.5 μg/mL IL-1RACP protein in PBS was transferred to a microtiter plate, incubated and washed 3× with Wash Buffer. 90 μL Block Buffer was added to each well, incubated and washed. 12.5 μl Standard Antibody (rabbit mAb against IL-1RAcP, anti IL12Rbeta1 antibody: IL-12Rbeta1 antibody; GeneTex; Cat. No. GTX103917) or sample diluted in ELISA buffer was added, incubated and washed. 12.5 μl 1:5000 POD-Antibody (Anti-rabbit IgG, peroxidase-linked species-specific Fab2 fragment (from donkey) (ECL); assay dilution: 1:5000) in Elisa Buffer was added, incubated and washed. 15 μl TMB was added and 15 μl HCl was added after sufficient development. Absorbance (Optical Density O.D.) was read at 450 nm/620 nm.

Binder | hu-IL1RaP ELISA (OD)
B1 | 2.2 OD
B2 | 1.4 OD
B3 | 3 OD
B4 | 3.3 OD
B5 | 3.3 OD
B6 | 3.4 OD
B7 | 3.6 OD
B8 | 3.7 OD

Each binder was assayed against T3, mIL1RAcP-Fc (murine, UniProt Q61730 21-359) (assay: ELISA, primary supernatant, coated mu-IL-1RAcP-Fc).
T3 construct: also called P013_04; P013-04
T3 sequence (looked up): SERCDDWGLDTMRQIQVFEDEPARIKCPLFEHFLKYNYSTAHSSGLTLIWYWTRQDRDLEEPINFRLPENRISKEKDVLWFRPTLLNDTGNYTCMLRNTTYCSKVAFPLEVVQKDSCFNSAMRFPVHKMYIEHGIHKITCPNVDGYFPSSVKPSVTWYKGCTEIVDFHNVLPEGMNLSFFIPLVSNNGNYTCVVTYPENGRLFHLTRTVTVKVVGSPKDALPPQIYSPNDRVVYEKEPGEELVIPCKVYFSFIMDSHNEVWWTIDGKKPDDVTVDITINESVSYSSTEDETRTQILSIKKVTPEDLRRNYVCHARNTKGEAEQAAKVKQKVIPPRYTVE

Binder | mu-IL1RaP ELISA (OD)
B1 | 0.4 OD
B2 | 1.1 OD
B3 | 0.8 OD
B5 | 0.1 OD
B7 | 0 OD
